Measurements from the supplement of paper PMC9112550, “Optimization of the antimicrobial peptide Bac7 by deep mutational scanning” (BMC Biology, 2022).

System: Escherichia coli TOP10
Assay: shrunken log2 fold change of peptide-encoding DNA abundance (4.5 h post-induction vs induction); higher = less antimicrobial activity (less host growth inhibition)
Conditions: time post-induction: 4.5 h; library: site-saturation at positions 5, 18, 19, 20
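Note: peptides expressed intracellularly from a pBAD plasmid library in pooled LB shake-flask culture, induced with 0.3% L-arabinose, DNA abundance read by NGS, three biological replicates, DESeq2 with apeglm shrinkage.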

Sequence | shrunken log2 fold change
RRIRKRPPRLPRPRPRPSDAPRP | -0.0187
RRIRWRPPRLPRPRPRPGQGPRP | 0.522
RRIRWRPPRLPRPRPRPSCQPRP | 0.232
RRIRWRPPRLPRPRPRPDDTPRP | 0.222
RRIRNRPPRLPRPRPRPVQRPRP | -0.186
RRIRARPPRLPRPRPRPILMPRP | 0.143
RRIRKRPPRLPRPRPRPSVMPRP | 0.163
RRIRARPPRLPRPRPRPRDLPRP | -0.162
RRIRFRPPRLPRPRPRPWMKPRP | -0.0336
RRIRDRPPRLPRPRPRPYNRPRP | -0.361
RRIRPRPPRLPRPRPRPLTKPRP | 0.0122
RRIRCRPPRLPRPRPRPGQRPRP | 0.0965
RRIRCRPPRLPRPRPRPPEIPRP | 0.0794
RRIRERPPRLPRPRPRPYMIPRP | -0.259
RRIRERPPRLPRPRPRPYAHPRP | -0.0128
RRIRQRPPRLPRPRPRPDGFPRP | -0.0107
RRIRMRPPRLPRPRPRPRGDPRP | 1.73
RRIRERPPRLPRPRPRPLSKPRP | -0.579
RRIRFRPPRLPRPRPRPILGPRP | 0.0151
RRIRNRPPRLPRPRPRPCLVPRP | 0.0322
RRIRFRPPRLPRPRPRPIKQPRP | -0.0488
RRIRQRPPRLPRPRPRPFIKPRP | -0.382
RRIRKRPPRLPRPRPRPYQYPRP | -0.0576
RRIRARPPRLPRPRPRPMWCPRP | 0.172
RRIRYRPPRLPRPRPRPIQCPRP | -0.0422

Sequence | shrunken log2 fold change
RRIRVRPPRLPRPRPRPMVKPRP | -0.166
RRIRARPPRLPRPRPRPWRNPRP | -0.0929
RRIRPRPPRLPRPRPRPLGSPRP | -0.0459
RRIRCRPPRLPRPRPRPWGVPRP | 0.122
RRIRIRPPRLPRPRPRPCDHPRP | -0.752
RRIRPRPPRLPRPRPRPPDCPRP | -0.0878
RRIRIRPPRLPRPRPRPPNFPRP | -0.108
RRIRARPPRLPRPRPRPVSVPRP | 0.137
RRIRSRPPRLPRPRPRPSVMPRP | -0.391
RRIRLRPPRLPRPRPRPPWMPRP | 0.167
RRIRLRPPRLPRPRPRPHLQPRP | -0.0975
RRIRPRPPRLPRPRPRPTVDPRP | 0.0336
RRIRARPPRLPRPRPRPKLMPRP | 0.357
RRIRVRPPRLPRPRPRPPPFPRP | 0.375
RRIRRRPPRLPRPRPRPAMHPRP | 0.422
RRIRNRPPRLPRPRPRPVYGPRP | -0.0867
RRIRLRPPRLPRPRPRPICPPRP | 0.00212
RRIRVRPPRLPRPRPRPEQTPRP | -0.0332
RRIRFRPPRLPRPRPRPAVKPRP | -0.137
RRIRSRPPRLPRPRPRPTPDPRP | 0.441
RRIRWRPPRLPRPRPRPRSYPRP | -0.0435
RRIRQRPPRLPRPRPRPDQKPRP | 0.019
RRIRERPPRLPRPRPRPSMIPRP | -0.171
RRIRGRPPRLPRPRPRPLNAPRP | 0.908
RRIRHRPPRLPRPRPRPKWFPRP | -0.233

Sequence | shrunken log2 fold change
RRIRLRPPRLPRPRPRPWTEPRP | -0.01
RRIRGRPPRLPRPRPRPFWIPRP | -0.432
RRIRGRPPRLPRPRPRPKTFPRP | 0.292
RRIRVRPPRLPRPRPRPFVTPRP | -0.206
RRIRGRPPRLPRPRPRPTYAPRP | 0.436
RRIRPRPPRLPRPRPRPMKEPRP | 0.104
RRIRLRPPRLPRPRPRPPKNPRP | 0.43
RRIRARPPRLPRPRPRPTRCPRP | 1.1
RRIRARPPRLPRPRPRPVAVPRP | 0.445
RRIRGRPPRLPRPRPRPVYSPRP | -0.36
RRIRGRPPRLPRPRPRPDTAPRP | 1
RRIRARPPRLPRPRPRPTDLPRP | 0.274
RRIRTRPPRLPRPRPRPENAPRP | -0.49
RRIRGRPPRLPRPRPRPRWGPRP | 0.852
RRIRLRPPRLPRPRPRPKVNPRP | 0.0232
RRIRQRPPRLPRPRPRPWSHPRP | -0.105
RRIRSRPPRLPRPRPRPMKWPRP | 0.053
RRIRVRPPRLPRPRPRPMKMPRP | -0.0573
RRIRKRPPRLPRPRPRPETTPRP | 1.53
RRIRARPPRLPRPRPRPIPCPRP | 0.0669
RRIRDRPPRLPRPRPRPFSAPRP | -0.36
RRIRRRPPRLPRPRPRPRGEPRP | 0.739
RRIRVRPPRLPRPRPRPNIDPRP | -0.258
RRIRARPPRLPRPRPRPHIDPRP | 0.205
RRIRCRPPRLPRPRPRPGSNPRP | -0.915

Sequence | shrunken log2 fold change
RRIRYRPPRLPRPRPRPYHQPRP | -0.662
RRIRIRPPRLPRPRPRPVIIPRP | -0.146
RRIRERPPRLPRPRPRPFTNPRP | -0.457
RRIRTRPPRLPRPRPRPFTMPRP | -0.348
RRIRCRPPRLPRPRPRPYYYPRP | -0.346
RRIRTRPPRLPRPRPRPIHFPRP | -0.00174
RRIRKRPPRLPRPRPRPGNCPRP | 0.0147
RRIRYRPPRLPRPRPRPGGLPRP | 3.02
RRIRPRPPRLPRPRPRPQCVPRP | 0.14
RRIRDRPPRLPRPRPRPLQEPRP | 0.223
RRIRVRPPRLPRPRPRPDMCPRP | 0.0884
RRIRGRPPRLPRPRPRPDSCPRP | 0.426
RRIRNRPPRLPRPRPRPIAIPRP | -0.0153
RRIRGRPPRLPRPRPRPTLHPRP | 0.896
RRIRERPPRLPRPRPRPLKHPRP | -0.425
RRIRDRPPRLPRPRPRPTRHPRP | 0.42
RRIRERPPRLPRPRPRPCFAPRP | 0.0529
RRIRSRPPRLPRPRPRPKQHPRP | 0.235
RRIRARPPRLPRPRPRPLQHPRP | 1.22
RRIRNRPPRLPRPRPRPREVPRP | 0.00782
RRIRLRPPRLPRPRPRPTFEPRP | -0.336
RRIRWRPPRLPRPRPRPMSIPRP | -0.191
RRIRLRPPRLPRPRPRPTSYPRP | -0.395
RRIRVRPPRLPRPRPRPIIWPRP | -0.098
RRIRWRPPRLPRPRPRPEHPPRP | 0.16

Sequence | shrunken log2 fold change
RRIRYRPPRLPRPRPRPPDQPRP | -0.145
RRIRWRPPRLPRPRPRPSLYPRP | -0.402
RRIRARPPRLPRPRPRPDYCPRP | -0.17
RRIRCRPPRLPRPRPRPFLYPRP | -0.513
RRIRSRPPRLPRPRPRPCIPPRP | -0.417
RRIRARPPRLPRPRPRPEIVPRP | 0.553
RRIRVRPPRLPRPRPRPYNVPRP | -0.0185
RRIRIRPPRLPRPRPRPMWNPRP | -0.472
RRIRDRPPRLPRPRPRPGCSPRP | 0.278
RRIRKRPPRLPRPRPRPTLHPRP | 0.359
RRIRTRPPRLPRPRPRPMFSPRP | -0.263
RRIRCRPPRLPRPRPRPCKVPRP | -0.147
RRIRWRPPRLPRPRPRPYVTPRP | -0.385
RRIRRRPPRLPRPRPRPEVIPRP | -0.0658
RRIRWRPPRLPRPRPRPGRMPRP | 0.000663
RRIRIRPPRLPRPRPRPVYFPRP | -0.807
RRIRTRPPRLPRPRPRPCEVPRP | 0.0427
RRIRTRPPRLPRPRPRPGIPPRP | -0.394
RRIRPRPPRLPRPRPRPCTSPRP | -0.0721
RRIRFRPPRLPRPRPRPLCIPRP | -0.571
RRIRRRPPRLPRPRPRPAHPPRP | 0.769
RRIRFRPPRLPRPRPRPLFCPRP | -0.462
RRIRGRPPRLPRPRPRPLKNPRP | 0.459
RRIRNRPPRLPRPRPRPYSIPRP | -0.534
RRIRFRPPRLPRPRPRPGGIPRP | -0.0183

Sequence | shrunken log2 fold change
RRIRWRPPRLPRPRPRPVHYPRP | -0.0467
RRIRGRPPRLPRPRPRPMFIPRP | 0.0775
RRIRNRPPRLPRPRPRPWIKPRP | -0.739
RRIRSRPPRLPRPRPRPTAPPRP | 0.317
RRIRPRPPRLPRPRPRPIHPPRP | 0.172
RRIRCRPPRLPRPRPRPSDKPRP | -0.207
RRIRNRPPRLPRPRPRPIDNPRP | -0.0163
RRIRMRPPRLPRPRPRPFMIPRP | -0.0423
RRIRGRPPRLPRPRPRPFSCPRP | -0.262
RRIRIRPPRLPRPRPRPDFVPRP | -0.0852
RRIRCRPPRLPRPRPRPAQWPRP | 0.696
RRIRTRPPRLPRPRPRPGQVPRP | -0.0192
RRIRKRPPRLPRPRPRPWFCPRP | -0.0352
RRIRERPPRLPRPRPRPTNSPRP | -0.782
RRIRDRPPRLPRPRPRPHVCPRP | -0.00727
RRIRPRPPRLPRPRPRPADNPRP | -0.428
RRIRWRPPRLPRPRPRPQHFPRP | 0.418
RRIRMRPPRLPRPRPRPQQVPRP | 0.00763
RRIRWRPPRLPRPRPRPPPIPRP | 0.574
RRIRARPPRLPRPRPRPEQWPRP | 0.0858
RRIRIRPPRLPRPRPRPIVHPRP | -0.642
RRIRIRPPRLPRPRPRPSGTPRP | -0.0278
RRIRCRPPRLPRPRPRPTQFPRP | 0.167
RRIRHRPPRLPRPRPRPRICPRP | 0.0205
RRIRCRPPRLPRPRPRPCAHPRP | 0.0631
